Experimental data published in patent US20250163167A1 (SYNTHEKINE, published 2025).
Blank lines part the entries; values can stand above or below the binder they belong to.

Target: T1, human IL-10 receptor (hIL-10R alpha and beta chains) on HEK-Blue IL-10 reporter cells (human, UniProt Q13651 22-578; Q08334 20-325)
T1 sequence 1: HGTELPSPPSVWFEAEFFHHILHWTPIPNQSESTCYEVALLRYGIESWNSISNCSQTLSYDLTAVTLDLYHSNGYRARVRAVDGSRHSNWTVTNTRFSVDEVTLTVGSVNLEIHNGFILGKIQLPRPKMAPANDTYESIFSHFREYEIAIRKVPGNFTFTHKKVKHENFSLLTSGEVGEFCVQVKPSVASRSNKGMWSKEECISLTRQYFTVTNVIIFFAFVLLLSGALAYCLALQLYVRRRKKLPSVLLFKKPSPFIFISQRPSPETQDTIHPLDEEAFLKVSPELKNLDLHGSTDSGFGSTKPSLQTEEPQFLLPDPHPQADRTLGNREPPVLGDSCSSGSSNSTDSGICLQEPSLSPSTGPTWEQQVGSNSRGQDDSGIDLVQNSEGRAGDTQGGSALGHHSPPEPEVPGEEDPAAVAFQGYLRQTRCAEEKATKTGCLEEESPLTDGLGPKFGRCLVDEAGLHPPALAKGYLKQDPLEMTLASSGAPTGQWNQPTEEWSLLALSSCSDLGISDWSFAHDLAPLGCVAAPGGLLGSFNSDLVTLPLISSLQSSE
T1 sequence 2: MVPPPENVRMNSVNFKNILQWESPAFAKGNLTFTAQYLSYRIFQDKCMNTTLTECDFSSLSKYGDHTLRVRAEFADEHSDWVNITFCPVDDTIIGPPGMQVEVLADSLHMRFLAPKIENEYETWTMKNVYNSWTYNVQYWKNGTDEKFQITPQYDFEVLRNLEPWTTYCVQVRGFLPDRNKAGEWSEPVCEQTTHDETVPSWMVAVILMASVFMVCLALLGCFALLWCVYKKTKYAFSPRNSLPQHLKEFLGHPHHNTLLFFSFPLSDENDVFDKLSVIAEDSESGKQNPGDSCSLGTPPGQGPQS
Assay: cell-based or functional assay

- Abs 630 (25 nM): 0.48 Abs 630
- Abs 630 (100 nM): 0.39 Abs 630
B1: IL10R binding molecule of SEQ ID NO: 312 (bispecific antibody)
chain: QVQLQESGGGSVQAGGSLRLSCAASGYTYSSYCMGWFRQAPGKEREGVAHIDSDGSTSYADSVKGRFTISKDNAKNTLYLQMNSLKPEDTAMYYCAADPIPGPGYCDGGPNKYWGQGTQVTVSSGGGSQVQLQESGGGSVQAGGSLRLSCAASRYLYSIDYMAWFRQSPGKEREPVAVIYTASGATFYPDSVKGRFTISQDNAKMTVYLQMNSLKSEDTAMYYCAAVRKTDSYLFDAQSFTYWGQGTQVTVSSASHHHHHH

- Abs 630 (25 nM): 0.51 Abs 630
- Abs 630 (100 nM): 0.44 Abs 630
B2: IL10R binding molecule of SEQ ID NO: 310 (bispecific antibody)
chain: QVQLQESGGGSVQAGGSLRLSCAASGYTYSSGCMGWFRQAPGKEREAVAAINSDGSTSYADSVKGRFTISKDNAKNTLYLQMNSLKPEDTAMYYCAAEPYCSGGYPRWSVAEFGYWGQGTQVTVSSGGGSQVQLQESGGGSVQAGGSLRLSCGASGYTYSSYCMGWFRQVPGKEREGVAVIDSDGSTSYADSVKGRFTISKDNGKNTLYLQMNSLKPEDTAMYYCAADLGHYRPPCGVLYLGMDYWGKGTQVTVSSASHHHHHH

- Abs 630 (25 nM): 0.48 Abs 630
- Abs 630 (100 nM): 0.4 Abs 630
B3: IL10R binding molecule of SEQ ID NO: 311 (bispecific antibody)
chain: QVQLQESGGGSVQAGGSLRLSCAASGYTYSSGCMGWFRQAPGKEREAVAAINSDGSTSYADSVKGRFTISKDNAKNTLYLQMNSLKPEDTAMYYCAAEPYCSGGYPRWSVAEFGYWGQGTQVTVSSGGGSQVQLQESGGGSVQAGGSLRLSCAASGYSNCSYDMTWYRQAPGKEREFVSAIHSDGSTRYADSVKGRFFISQDNAKNTVYLQMNSLKPEDTAMYYCKTDPLHCRAHGGSWYSVRANYWGQGTQVTVSSASHHHHHH

- Abs 630 (25 nM): 0.44 Abs 630
- Abs 630 (100 nM): 0.34 Abs 630
B4: IL10R binding molecule of SEQ ID NO: 261 (bispecific antibody)
chain: QVQLQESGGGSVQAGGSLRLSCAASRYLYSIDYMAWFRQSPGKEREPVAVIYTASGATFYPDSVKGRFTISQDNAKMTVYLQMNSLKSEDTAMYYCAAVRKTDSYLFDAQSFTYWGQGTQVTVSSGGGSQVQLQESGGGSVQAGGSLRLSCAASGYSYSSYCMGWFRQAPGKEREGVATIDSDGMTRYADSVKGRFTISKDNAKNTLYLQMNSLKPEDTAMYYCAAPLYDCDSGAVGRNPPYWGQGTQVTVSSASHHHHHH

- Abs 630 (25 nM): 0.5 Abs 630
- Abs 630 (100 nM): 0.45 Abs 630
B5: IL10R binding molecule of SEQ ID NO: 318 (bispecific antibody)
chain: QVQLQESGGGSVQAGGSLRLSCAASGYTYSSYCMGWFRQAPGKEREGVAHIDSDGSTSYADSVKGRFTISKDNAKNTLYLQMNSLKPEDTAMYYCAADPIPGPGYCDGGPNKYWGQGTQVTVSSGGGSQVQLQESGGGSVQAGGSLRLSCAASGYSNCSYDMTWYRQAPGKEREFVSAIHSDGSTRYADSVKGRFFISQDNAKNTVYLQMNSLKPEDTAMYYCKTDPLHCRAHGGSWYSVRANYWGQGTQVTVSSASHHHHHH

- Abs 630 (25 nM): 0.49 Abs 630
- Abs 630 (100 nM): 0.42 Abs 630
B6: IL10R binding molecule of SEQ ID NO: 314 (bispecific antibody)
chain: QVQLQESGGGSVQAGGSLRLSCAASGYTYSSYCMGWFRQAPGKEREGVAHIDSDGSTSYADSVKGRFTISKDNAKNTLYLQMNSLKPEDTAMYYCAADPIPGPGYCDGGPNKYWGQGTQVTVSSGGGSQVQLQESGGGSVQAGGSLRLSCAASGYTYSMYCMGWFRQAPGKEREGVAQINSDGSTSYADSVKGRFTISKDNAKNTLYLQMNSLKPEDTAMYYCAADSRVYGGSWYERLCGPYTYEYNYWGQGTQVTVSSASHHHHHH

- Abs 630 (25 nM): 0.47 Abs 630
- Abs 630 (100 nM): 0.39 Abs 630
B7: IL10R binding molecule of SEQ ID NO: 313 (bispecific antibody)
chain: QVQLQESGGGSVQAGGSLRLSCAASGYTYSSYCMGWFRQAPGKEREGVAHIDSDGSTSYADSVKGRFTISKDNAKNTLYLQMNSLKPEDTAMYYCAADPIPGPGYCDGGPNKYWGQGTQVTVSSGGGSQVQLQESGGGSVQAGGSLRLSCAASRFTYSSYCMGWFRQAPGKEREGVASIDSDGSTSYTDSVKGRFTISKDNAKNTLYLQMNSLKPEDTAMYYCALDLMSTVVPGFCGFLLSAGMDYWGKGTQVTVSSASHHHHHH

- Abs 630 (25 nM): 0.49 Abs 630
- Abs 630 (100 nM): 0.39 Abs 630
B8: IL10R binding molecule of SEQ ID NO: 260 (bispecific antibody)
chain: QVQLQESGGGSVQAGGSLRLSCAASRYLYSIDYMAWFRQSPGKEREPVAVIYTASGATFYPDSVKGRFTISQDNAKMTVYLQMNSLKSEDTAMYYCAAVRKTDSYLFDAQSFTYWGQGTQVTVSSGGGSQVQLQESGGGSVEAGGSLRLSCAASGYTHSSYCMGWFRQAPGKEREGVAAIDVDGSTTYADSVKGRFTISKDNAKNTLYLQMNSLKPEDTGMYYCAAEFADCSSNYFLPPGAVRYWGQGTQVTVSSASHHHHHH

- Abs 630 (25 nM): 0.45 Abs 630
- Abs 630 (100 nM): 0.38 Abs 630
B9: IL10R binding molecule of SEQ ID NO: 317 (bispecific antibody)
chain: QVQLQESGGGSVQAGGSLRLSCAASGYTYSSYCMGWFRQAPGKEREGVAHIDSDGSTSYADSVKGRFTISKDNAKNTLYLQMNSLKPEDTAMYYCAADPIPGPGYCDGGPNKYWGQGTQVTVSSGGGSQVQLQESGGGSVQAGGSLRLSCGASGYTYSSYCMGWFRQVPGKEREGVAVIDSDGSTSYADSVKGRFTISKDNGKNTLYLQMNSLKPEDTAMYYCAADLGHYRPPCGVLYLGMDYWGKGTQVTVSSASHHHHHH

- Abs 630 (25 nM): 0.51 Abs 630
- Abs 630 (100 nM): 0.41 Abs 630
B10: IL10R binding molecule of SEQ ID NO: 315 (bispecific antibody)
chain: QVQLQESGGGSVQAGGSLRLSCAASGYTYSSYCMGWFRQAPGKEREGVAHIDSDGSTSYADSVKGRFTISKDNAKNTLYLQMNSLKPEDTAMYYCAADPIPGPGYCDGGPNKYWGQGTQVTVSSGGGSQVQLQESGGGSVQAGGSLRLSCAVSGYAYSTYCMGWFRQAPGKEREGVAAIDSGGSTSYADSVKGRFTISKDNAKNTLYLRMNSLKPEDTAMYYCAAVPPPPDGGSCLFLGPEIKVSKADFRYWGQGTQVTVSSASHHHHHH

- Abs 630 (25 nM): 0.45 Abs 630
- Abs 630 (100 nM): 0.37 Abs 630
B11: IL10R binding molecule of SEQ ID NO: 309 (bispecific antibody)
chain: QVQLQESGGGSVQAGGSLRLSCAASGYTYSSGCMGWFRQAPGKEREAVAAINSDGSTSYADSVKGRFTISKDNAKNTLYLQMNSLKPEDTAMYYCAAEPYCSGGYPRWSVAEFGYWGQGTQVTVSSGGGSQVQLQESGGGSVQAGGSLRLSCTVSGYTYSSNCMGWFRQAPGKEREGVATIYTGGGNTYYADSVKGRFTISQDNAKNTVYLQMNNLKPEDTAMYYCAAEPLSRVYGGSCPTPTFDYWGQGTQVTVSSASHHHHHH

- Abs 630 (25 nM): 0.48 Abs 630
- Abs 630 (100 nM): 0.39 Abs 630
B12: IL10R binding molecule of SEQ ID NO: 316 (bispecific antibody)
chain: QVQLQESGGGSVQAGGSLRLSCAASGYTYSSYCMGWFRQAPGKEREGVAHIDSDGSTSYADSVKGRFTISKDNAKNTLYLQMNSLKPEDTAMYYCAADPIPGPGYCDGGPNKYWGQGTQVTVSSGGGSQVQLQESGGGSVQAGGSLRLSCTVSGYTYSSNCMGWFRQAPGKEREGVATIYTGGGNTYYADSVKGRFTISQDNAKNTVYLQMNNLKPEDTAMYYCAAEPLSRVYGGSCPTPTFDYWGQGTQVTVSSASHHHHHH

- Abs 630 (25 nM): 0.47 Abs 630
- Abs 630 (100 nM): 0.36 Abs 630
B13: IL10R binding molecule of SEQ ID NO: 319 (bispecific antibody)
chain: QVQLQESGGGSVQAGGSLRLSCAASRYTYNSYCMGWFRQAPGKEREGVATIDSDGMTRYADSVKGRFTISKDNAKNTLYLQMNSLKPEDTAMYYCAADADCTIAAMTTNPLGQGTQVTVSSGGGSQVQLQESGGGSVQAGGSLRLSCAASRYLYSIDYMAWFRQSPGKEREPVAVIYTASGATFYPDSVKGRFTISQDNAKMTVYLQMNSLKSEDTAMYYCAAVRKTDSYLFDAQSFTYWGQGTQVTVSSASHHHHHH
